Key:
[1] = molecular target: T1, VeA yeast two-hybrid fusion (veA ORF in pTLexA or pGAD424) (Aspergillus nidulans, UniProt C8VTV4 1-573); assay: yeast two-hybrid
T1 construct: also called pNJ04; pNJ05
T1 sequence: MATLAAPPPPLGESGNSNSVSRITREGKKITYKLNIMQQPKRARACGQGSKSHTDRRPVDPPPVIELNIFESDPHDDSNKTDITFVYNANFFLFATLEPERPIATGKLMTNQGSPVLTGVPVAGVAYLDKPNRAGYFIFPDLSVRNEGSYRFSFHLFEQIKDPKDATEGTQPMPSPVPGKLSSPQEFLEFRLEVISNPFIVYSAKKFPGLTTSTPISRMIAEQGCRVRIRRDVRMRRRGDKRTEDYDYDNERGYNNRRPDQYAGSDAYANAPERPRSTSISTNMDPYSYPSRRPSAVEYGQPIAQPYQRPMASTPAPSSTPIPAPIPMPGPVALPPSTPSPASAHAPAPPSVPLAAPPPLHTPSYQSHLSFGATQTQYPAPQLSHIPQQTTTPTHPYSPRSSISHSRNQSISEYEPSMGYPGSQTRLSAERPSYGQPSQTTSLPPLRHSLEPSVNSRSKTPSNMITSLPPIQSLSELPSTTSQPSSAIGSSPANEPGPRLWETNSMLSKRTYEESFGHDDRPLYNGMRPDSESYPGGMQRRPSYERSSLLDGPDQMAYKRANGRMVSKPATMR

[2] = molecular target: T2, N-EYFP::VeA (Aspergillus nidulans, UniProt C8VTV4 1-573); assay: bimolecular fluorescence complementation in living A. nidulans cells
T2 construct: BiFC construct expressed in A. nidulans (pME3188, pME3189); also called enhanced yellow fluorescent protein fused to the N terminus of veA; not shown: N-terminal part of EYFP (n-eyfp)
T2 sequence: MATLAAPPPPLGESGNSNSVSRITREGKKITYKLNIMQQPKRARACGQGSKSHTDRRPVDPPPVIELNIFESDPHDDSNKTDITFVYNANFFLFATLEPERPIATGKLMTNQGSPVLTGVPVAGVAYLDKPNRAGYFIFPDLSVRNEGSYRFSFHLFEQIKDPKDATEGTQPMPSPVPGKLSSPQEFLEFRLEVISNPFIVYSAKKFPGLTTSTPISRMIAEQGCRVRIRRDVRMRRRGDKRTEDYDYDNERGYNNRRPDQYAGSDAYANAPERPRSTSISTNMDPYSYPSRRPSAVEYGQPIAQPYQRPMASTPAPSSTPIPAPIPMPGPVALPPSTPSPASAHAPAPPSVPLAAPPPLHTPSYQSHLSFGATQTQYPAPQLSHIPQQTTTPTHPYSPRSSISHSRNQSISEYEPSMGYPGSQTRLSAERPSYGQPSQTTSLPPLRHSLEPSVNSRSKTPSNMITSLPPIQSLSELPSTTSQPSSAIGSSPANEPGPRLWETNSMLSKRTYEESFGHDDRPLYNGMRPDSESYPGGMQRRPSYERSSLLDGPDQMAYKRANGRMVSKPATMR

[3] = molecular target: T3, VeA::TAP* (VeA tagged at its C terminus by TAP tag, veA::ctap*) (Aspergillus nidulans, UniProt C8VTV4 1-573); assay: tandem affinity purification of veA::ctap* and mass spectrometry, dark
T3 construct: 85 kDa on the immunoblot; also called tagged VeA; VeA::TAP* tag
T3 sequence: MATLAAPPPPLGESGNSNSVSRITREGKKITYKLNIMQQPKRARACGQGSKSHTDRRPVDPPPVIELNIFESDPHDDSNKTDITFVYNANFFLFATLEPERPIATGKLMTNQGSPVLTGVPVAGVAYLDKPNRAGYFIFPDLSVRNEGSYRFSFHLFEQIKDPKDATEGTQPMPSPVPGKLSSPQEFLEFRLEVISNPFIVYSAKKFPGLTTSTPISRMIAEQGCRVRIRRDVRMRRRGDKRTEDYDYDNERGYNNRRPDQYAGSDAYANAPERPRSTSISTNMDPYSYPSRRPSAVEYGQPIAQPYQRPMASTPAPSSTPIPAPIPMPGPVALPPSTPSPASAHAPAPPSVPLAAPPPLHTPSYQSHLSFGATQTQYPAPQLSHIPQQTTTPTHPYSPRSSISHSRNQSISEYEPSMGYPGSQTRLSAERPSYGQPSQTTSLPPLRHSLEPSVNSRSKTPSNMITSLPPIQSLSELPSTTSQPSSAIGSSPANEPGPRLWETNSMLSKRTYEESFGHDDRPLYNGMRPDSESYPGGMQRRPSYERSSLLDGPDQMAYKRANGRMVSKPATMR

[4] = molecular target: T3, VeA::TAP* (VeA tagged at its C terminus …); assay: tandem affinity purification and mass spectrometry, dark

B1: VelB yeast two-hybrid fusion (velB ORF in pTLexA or pGAD424) (other)
chain: MYAVEDRAHSGHHPPPLSMDRIPPPSTMYPSSAGPSAMVSPAGQPEPESLSTVHDGRIWSLQVVQQPIRARMCGFGDKDRRPITPPPCIRLIVKDAQTQKEVDINSLDSSFYVVMADLWNADGTHEVNLVKHSATSPSISTAMSSSYPPPPHPTSSDYPASYQTNPYGQPVGQPVGQPVGYAGVGNYYGGSTQLQYQNAYPNPQAQYYQPMYGGMAQPQMPAAQPVTPGPGGMFTRNLIGCLSASAYRLYDTEDKIGVWFVLQDLSVRTEGIFRLKFSFVNVGKSVSDLPQSDIAEVINKGTAPILASTFSEPFQVFSAKKFPGVIESTPLSKVFANQGIKIPIRKDGVKGQGSRGRHSDEDDGLDNEY
notes: also called pNJ20; pNJ23
binding result [1]: binds

B2: C-EYFP::VelB (other)
chain: MYAVEDRAHSGHHPPPLSMDRIPPPSTMYPSSAGPSAMVSPAGQPEPESLSTVHDGRIWSLQVVQQPIRARMCGFGDKDRRPITPPPCIRLIVKDAQTQKEVDINSLDSSFYVVMADLWNADGTHEVNLVKHSATSPSISTAMSSSYPPPPHPTSSDYPASYQTNPYGQPVGQPVGQPVGYAGVGNYYGGSTQLQYQNAYPNPQAQYYQPMYGGMAQPQMPAAQPVTPGPGGMFTRNLIGCLSASAYRLYDTEDKIGVWFVLQDLSVRTEGIFRLKFSFVNVGKSVSDLPQSDIAEVINKGTAPILASTFSEPFQVFSAKKFPGVIESTPLSKVFANQGIKIPIRKDGVKGQGSRGRHSDEDDGLDNEY
notes: BiFC construct expressed in A. nidulans (pME3189, strain AGB388); not shown: C-terminal part of EYFP (c-eyfp)
binding result [2]: binds

B3: C-EYFP::LaeA (other)
chain: MFEMGPVGTRLPAMTSPAHNHYSYHSPTSSDRGRSRQNSDAMDIQSITEREPATRYAVAGGPAPWNRNGSPSMSPMYSNNSERNQFHEENGRTYHGFRRGMYFLPCDEQEQDRLDIFHKLFTVARVSESLIYAPHPTNGRFLDLGCGTGIWAIEVANKYPDAFVAGVDLAPIQPPNHPKNCEFYAPFDFEAPWAMGEDSWDLIHLQMGCGSVMGWPNLYRRIFAHLRPGAWFEQVEIDFEPRCDDRSLDGTALRHWYDCLKQATAETMRPIAHSSRDTIKDLQDAGFTEIDHQIVGLPLNPWHQDEHERKVARWYNLAVSESIENLSLAPFSRVYRWPLERIQQLAADVKSEAFNKEIHAYNILHIYQARKPLR
notes: BiFC construct expressed in A. nidulans (pME3188, strain AGB307); not shown: C-terminal part of EYFP (c-eyfp)
binding result [2]: binds

B4: LaeA (other)
chain: MFEMGPVGTRLPAMTSPAHNHYSYHSPTSSDRGRSRQNSDAMDIQSITEREPATRYAVAGGPAPWNRNGSPSMSPMYSNNSERNQFHEENGRTYHGFRRGMYFLPCDEQEQDRLDIFHKLFTVARVSESLIYAPHPTNGRFLDLGCGTGIWAIEVANKYPDAFVAGVDLAPIQPPNHPKNCEFYAPFDFEAPWAMGEDSWDLIHLQMGCGSVMGWPNLYRRIFAHLRPGAWFEQVEIDFEPRCDDRSLDGTALRHWYDCLKQATAETMRPIAHSSRDTIKDLQDAGFTEIDHQIVGLPLNPWHQDEHERKVARWYNLAVSESIENLSLAPFSRVYRWPLERIQQLAADVKSEAFNKEIHAYNILHIYQARKPLR
notes: Endogenous untagged protein co-purified from A. nidulans extracts; also called regulator LaeA
binding result [3]: binds

B5: regulator of sporogenesis VosA (other)
chain: MSAANYPDPSLPRPSTSDDFELIVRQNPNRARVAGGKEKERKPVDPPPIVQIRVREEGTYLAQHYLQSPYFFMSCSLYDAQEDAPASIPPSTALTGTLVSSLHRLKDVDNTDGGFFVWGDLSIKVEGDFRLKFSLFEMRKTDVVFLKSIVSERFTVSPPKSFPGMAESTFLSRSFADQGVKLRIRKEPRTLIKRTAPRPEEYPQAAIPRSPSDRTAMQIPGSSYPAPPYQPTSRDYSYYAPVKRQRTSVDYGARGMYDADGRMRQMETYPQTATLYGQPGGYPTPMMGYPSGHGGVPDYAMSYGLPPSAQVPQMQDPAAQSRSSQQATMQSLGMVNPPGTPTPDSARAMMQQAYPRPQYSASTAVLPPLQQSRNYPQGTNGATRGYYEQSPQATPILPSQPLGTSEAERYGVPPGHTGYDHTGSANGTPR
notes: Endogenous untagged protein co-purified from A. nidulans extracts
binding result [4]: no binding
